Experimental data published in the RNAGym collection of RNA variant scans (doi:10.7554/elife.80360).

B1: HDV Ribozyme (parent)
chain: GGCCGGCAUGGUCCCAGCCUCCUCGCUGGCGCCGGCUGGGCAACAUUCCGAGGGGACCGUCCCCUCGGUAAUGGCGAAUGGGACCCA

Variants of: B1
Assay: self-cleavage, relative activity (ratio to wild type); higher = more cleavage; co-transcriptional

Compared with C58U A71G, C58U A77C is lower in self-cleavage: 1.08 for the first, 0.489 for the second.

Compared with C58U A87G, C58U C64U is higher in self-cleavage: 0.876 for the first, 0.987 for the second.

First: C58U C84G
Second: C58U G67C
The self-cleavage of the first is lower: 0.665 for the first, 1.07 for the second.

Compared with C58U G68A, C58U U60A is lower in self-cleavage: 0.855 for the first, 0.845 for the second.

Going from C58U U60C to C58U U65C, the self-cleavage falls from 1.19 to 1.03.

First: C58U U65G
Second: C58U U69A
The self-cleavage of the first is higher: 0.964 for the first, 0.89 for the second.

Compared with G59A A70C, G59A A77C is lower in self-cleavage: 0.982 for the first, 0.475 for the second.

Going from G59A C61A to G59A C64A, the self-cleavage falls from 1.02 to 0.862.

First: G59A C66A
Second: G59A C84U
The self-cleavage of the first is higher: 0.867 for the first, 0.73 for the second.

Going from G59A C86A to G59A G67U, the self-cleavage rises from 0.842 to 0.918.

First: G59A G68A
Second: G59A G73A
The self-cleavage of the first is higher: 0.968 for the first, 0.665 for the second.

First: G59A G73C
Second: G59A G74A
The self-cleavage of the first is lower: 0.394 for the first, 0.431 for the second.

Going from G59A G80A to G59A G80U, the self-cleavage falls from 0.305 to 0.179.

First: G59A U60A
Second: G59A U65A
The self-cleavage of the first is higher: 0.979 for the first, 0.933 for the second.

First: G59A U72A
Second: G59A U72G
The self-cleavage of the first is higher: 0.698 for the first, 0.637 for the second.

Going from G59A U79G to G59C A71U, the self-cleavage rises from 0.906 to 1.06.

Going from G59C A77G to G59C A77U, the self-cleavage falls from 1.13 to 0.534.

Going from G59C A83C to G59C A83U, the self-cleavage falls from 0.514 to 0.469.

First: G59C A87U
Second: G59C C62A
The self-cleavage of the first is higher: 0.981 for the first, 0.87 for the second.

Going from G59C C63A to G59C C64U, the self-cleavage falls from 1.17 to 1.14.

Compared with G59C C66A, G59C C84G is lower in self-cleavage: 0.914 for the first, 0.831 for the second.

Going from G59C C85U to G59C G67C, the self-cleavage falls from 1.14 to 0.929.

Compared with G59C G68U, G59C G73A is lower in self-cleavage: 1.07 for the first, 0.779 for the second.

Compared with G59C G74U, G59C G76U is higher in self-cleavage: 0.531 for the first, 0.891 for the second.

Compared with G59C G80A, G59C G81A is higher in self-cleavage: 0.409 for the first, 0.69 for the second.

First: G59C G82A
Second: G59C U60A
The self-cleavage of the first is lower: 0.32 for the first, 1.09 for the second.

Going from G59C U69C to G59U A71U, the self-cleavage falls from 1.23 to 0.862.

First: G59U A77G
Second: G59U A78G
The self-cleavage of the first is lower: 0.847 for the first, 0.904 for the second.

Compared with G59U A87G, G59U C61A is lower in self-cleavage: 0.993 for the first, 0.968 for the second.

First: G59U C61G
Second: G59U C63A
The self-cleavage of the first is higher: 1.2 for the first, 0.935 for the second.

First: G59U C66A
Second: G59U C75G
The self-cleavage of the first is higher: 0.904 for the first, 0.123 for the second.

First: G59U C84A
Second: G59U G67U
The self-cleavage of the first is lower: 0.863 for the first, 1.17 for the second.

First: G59U G68A
Second: G59U G68U
The self-cleavage of the first is lower: 0.88 for the first, 1 for the second.

Going from G59U G76A to G59U G80C, the self-cleavage falls from 0.925 to 0.141.

Going from G59U G81U to U60A, the self-cleavage rises from 0.433 to 1.

Going from U60A A71G to U60A A71U, the self-cleavage falls from 1.12 to 1.03.

Going from U60A A77G to U60A A77U, the self-cleavage falls from 1.14 to 0.453.

Going from U60A A83C to U60A A83G, the self-cleavage rises from 0.554 to 1.04.

Compared with U60A A83U, U60A A87U is higher in self-cleavage: 0.356 for the first, 0.985 for the second.

Going from U60A C61G to U60A C62G, the self-cleavage falls from 1.19 to 0.997.

First: U60A C64A
Second: U60A C64G
The self-cleavage of the first is lower: 0.878 for the first, 0.954 for the second.

Compared with U60A C75A, U60A C75U is higher in self-cleavage: 0.0811 for the first, 0.253 for the second.

First: U60A C84G
Second: U60A C86A
The self-cleavage of the first is lower: 0.475 for the first, 0.577 for the second.

Going from U60A G67A to U60A G67C, the self-cleavage rises from 0.95 to 1.03.

First: U60A G67U
Second: U60A G68C
The self-cleavage of the first is higher: 0.818 for the first, 0.791 for the second.

First: U60A G73U
Second: U60A G74C
The self-cleavage of the first is higher: 0.475 for the first, 0.225 for the second.

Compared with U60A G74U, U60A G76C is higher in self-cleavage: 0.521 for the first, 0.973 for the second.

Going from U60A G76U to U60A G80C, the self-cleavage falls from 1.01 to 0.0354.

Going from U60A G82A to U60A U69C, the self-cleavage rises from 0.373 to 1.08.

Compared with U60C, U60C A70U is higher in self-cleavage: 1.01 for the first, 1.15 for the second.

Going from U60C A71C to U60C A78G, the self-cleavage falls from 1.27 to 0.935.

First: U60C A83G
Second: U60C A87G
The self-cleavage of the first is lower: 0.707 for the first, 1.03 for the second.

Compared with U60C A87U, U60C C61U is lower in self-cleavage: 0.921 for the first, 0.718 for the second.

Compared with U60C C62A, U60C C63G is higher in self-cleavage: 1.01 for the first, 1.09 for the second.

Compared with U60C C64U, U60C C66G is higher in self-cleavage: 0.895 for the first, 1.02 for the second.

Going from U60C C75U to U60C C84A, the self-cleavage rises from 0.203 to 0.698.

Compared with U60C C84U, U60C C86G is higher in self-cleavage: 0.918 for the first, 0.982 for the second.

Compared with U60C G67C, U60C G73A is higher in self-cleavage: 0.554 for the first, 0.815 for the second.

Compared with U60C G80U, U60C G81A is higher in self-cleavage: 0.157 for the first, 0.604 for the second.

Compared with U60C U65A, U60C U69A is lower in self-cleavage: 1.27 for the first, 0.802 for the second.

Going from U60C U69C to U60G, the self-cleavage falls from 1.2 to 0.978.

Compared with U60G A70U, U60G A71G is lower in self-cleavage: 0.969 for the first, 0.831 for the second.

Compared with U60G A78C, U60G A78G is higher in self-cleavage: 0.151 for the first, 0.72 for the second.

Compared with U60G A78U, U60G A83C is higher in self-cleavage: 0.178 for the first, 0.612 for the second.

Compared with U60G A87U, U60G C61A is higher in self-cleavage: 0.906 for the first, 1.11 for the second.

First: U60G C61U
Second: U60G C62U
The self-cleavage of the first is higher: 1.06 for the first, 1.05 for the second.

Compared with U60G C63A, U60G C64G is higher in self-cleavage: 0.831 for the first, 0.919 for the second.

Compared with U60G C64U, U60G C66G is higher in self-cleavage: 0.897 for the first, 1.05 for the second.

Compared with U60G C86G, U60G G67A is lower in self-cleavage: 1.14 for the first, 0.91 for the second.

First: U60G G67C
Second: U60G G68U
The self-cleavage of the first is higher: 0.98 for the first, 0.762 for the second.

Compared with U60G G73A, U60G G74A is lower in self-cleavage: 0.591 for the first, 0.227 for the second.

Going from U60G G74C to U60G G76C, the self-cleavage rises from 0.443 to 1.09.

First: U60G G80U
Second: U60G G82A
The self-cleavage of the first is lower: 0.277 for the first, 0.6 for the second.

Going from U60G U69G to U60G U72C, the self-cleavage falls from 0.755 to 0.489.

Going from U60G U79C to C61A A70C, the self-cleavage rises from 0.203 to 1.01.

Going from C61A A70U to C61A A71G, the self-cleavage falls from 1.17 to 1.11.

Compared with C61A A71U, C61A A77C is lower in self-cleavage: 0.784 for the first, 0.527 for the second.

First: C61A A78U
Second: C61A A83G
The self-cleavage of the first is lower: 0.131 for the first, 0.997 for the second.

First: C61A C62U
Second: C61A C84G
The self-cleavage of the first is higher: 1.01 for the first, 0.795 for the second.

Compared with C61A G68C, C61A G76U is higher in self-cleavage: 0.873 for the first, 1.05 for the second.

Going from C61A G81C to C61A G82A, the self-cleavage rises from 0.287 to 0.46.

Compared with C61A U65C, C61A U69A is higher in self-cleavage: 0.909 for the first, 1.09 for the second.

Going from C61A U69G to C61G A70C, the self-cleavage falls from 1.03 to 0.944.

In the case of C61G A71G, the self-cleavage is reported as 0.808.
